One test addresses human insulin (human, UniProt P01308 25-54; P01308 90-110, limits assumed). Description: screening of a human naive phage library; assay not named here.
Test [1] deals with T1, human insulin-like growth factor II (human, UniProt P01344 25-91).
T1 construct: also called IGF-II; IGF II
The experiment in a line: ELISA on IGF-II, one Fab concentration (not given). The method, then:
(§1) ELISA Binding Assay. Antigen was coated on narrow-well, 96-well plate at 50 ng/well overnight at 4° C. For phage ELISA, 10¹⁰ phage from each round of panning was incubated with antigen. Bound phage was detected with anti-M13-HRP polyclonal antibody (Pharmacia, Piscataway, N.J.). For soluble Fab binding assay, anti-Flag HRP conjugate was used to detect the binding.
(In general: An ELISA detects its analyte on a solid surface through an enzyme-linked reagent.)

The target in test [2] is T2, recombinant human insulin-like growth factor I (human, UniProt P05019 49-118).
T2 construct: also called IGF-I; IGF I
Description: competition ELISA: m706 at 100 nM against the binding of IGF-I (50 nM) to soluble IGF-IR.

For test [3], the target named is T2, recombinant human insulin-like growth …. Description: ELISA on IGF-I, one Fab concentration (not given), duplicate bars. As for the experimental part: as §1
Test [4] has the same target. The experiment in a line: competition ELISA: m708 at 400 nM against the binding of IGF-I (50 nM) to soluble IGF-IR.
For test [5], the target named is T1, human insulin-like growth factor II. Description: method not stated (FIG. 9).
In test [6] the target is T2, recombinant human insulin-like growth …. The experiment in a line: ELISA, Fab titrated on IGF-I. The method, then:
as §1

In general, Kd refers to the free concentration of one partner at which half of the binding sites on the other are occupied at equilibrium, for simple one-to-one binding. Lower therefore signals a tighter complex.

T1 sequence (P01344 25-91 limits assumed): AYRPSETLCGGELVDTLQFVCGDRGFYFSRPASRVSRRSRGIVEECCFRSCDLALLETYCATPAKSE
T2 sequence (P05019 49-118 limits assumed): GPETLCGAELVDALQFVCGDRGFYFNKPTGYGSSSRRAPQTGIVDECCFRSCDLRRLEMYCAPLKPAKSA
human insulin, sequence (P01308 25-54 limits assumed, chain 1 of 2): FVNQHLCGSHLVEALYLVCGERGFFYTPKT
human insulin, sequence (P01308 90-110 limits assumed, chain 2 of 2): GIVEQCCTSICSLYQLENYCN

B1: m706 Fab (Fab, V domains shown)
VH: EVQLVQSGVDVKKPGSSVKVSCKASGGTFSSYAISWVRQAPGQGLEWMGGIIPIFGTANYAQKFQGRVTITADESASTAYMELSSLRSEDTAVYYCASGYEGPLWAFDIWGQGTMVTVSS
VL: SQSVLTQPPSVSAAPGQRVSISCSGSSSNIGNYHVSWYQHLPGRAPKLLIYDNSKRPSGIPDRFSGSKSGTSATLDITGLQTGDEGDYYCATWDTSLRWVFGTGTKVTVL
notes: also called No. 6; IGF-I specific mAb
As for B1, the binding result in the test with human insulin is listed as “no binding”; in test [1], “no binding”; in test [2], “binds”.

B2: m705 Fab (Fab, V domains shown)
VH: QVQLVQSGVEVKKPGASVKVPCKASGYTFTSYYMHWVRQAPGQGLEWMGIINPSGGSTSYAQKFQGRVTMTRDTSTSTVYMELSSLRSEDTAVYYCARDDFWSGAVGMDVWGQGTTVTVSS
VL: DIQMTQSPATLSLSPGERATLSCRASQDVGSDLAWYQQKPGQPPRLLVSDASNRATGIPARFSGSGSGTDFKLTINSLEPEDSAVYYCQQRRRWPPGATFGGGTKVEIKR
notes: also called No. 5; IGF-I specific mAb
B2: the figures for the binding result (in test [3]; in the test with human insulin; in test [1]) were “binds”, “no binding” and “no binding”, respectively.

B3: m708 Fab (Fab, V domains shown)
VH: QVQLQQSGAEVKKPGSSVKVSCKASGGTFSSYAISWVRQAPGQGLEWMGGIIPILGIANYAQKFQGRVTITADESTSTAYMELSSLRSEDTAVYYCARGPRGYSYNFDYWGQGTLVTVSS
VL: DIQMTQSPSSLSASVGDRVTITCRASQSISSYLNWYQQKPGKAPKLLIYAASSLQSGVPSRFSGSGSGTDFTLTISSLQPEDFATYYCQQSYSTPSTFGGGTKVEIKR
notes: also called No. 8
As for B3, in test [4], the binding result is “binds”.

B4: m708.2 IgG1 (antibody, V domains shown)
VH: B3 VH
VL: DIQMTQSPSSLSASVGDRVTIACRASQTISRYLNWYQQKPGKAPKLLIYAASSLQSGVSSRFSGSGSGTEFTLTISSLQPEDFATYFCQQTYSPPITFGQGTRLEIKR
notes: also called IgG708.2
In test [5], B4 came in with a Kd of roughly 0.08 nM.

B5: m708.2 Fab (Fab, V domains shown)
VH: B3 VH
VL: B4 VL
notes: also called clone m708.2
Take B5: the binding result in test [6] was “binds”.

Values taken from patent US20100055033A1 (GOVERNMENT OF THE UNITED STATES OF AMERICA AS REPRESENTED …, published 2010).
